Broadly, the half-life is the time needed for the level to fall by half in the phase considered. Higher therefore signals slow decline. In general, residence time refers to how long the partners stay bound on average. Broadly, the Kd is the concentration at which binding is half-saturated. What is called koff is the first-order rate constant of dissociation. Read a low koff as slow dissociation. One may read the kon as the second-order rate constant of association. A low value points to slower complex formation.

Like-named read-outs stand apart in the source and are kept apart here.

Holding throughout (assay): BLI
The target in test [1] is T1, Biotin-CGRP(8-37)NH2[N31D/S34P/K35W/A36S] (human).
T1 sequence (P06881 90-119 with N31D S34P K35W A36S, looked up): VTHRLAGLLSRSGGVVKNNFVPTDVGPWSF

The target of test [2] is biotin-CGRP(8-37)NH2 (human).
Test [3] has as its target T1, Biotin-CGRP(8-37)NH2[N31D/S34P/K35W/A36S] (human). This is another data set of the same source.

In test [1], “RAMP1.24-111-(GS)5-CLR.29-134-H6 (CLR:RAMP1 ECD fusion protein) (from UniProt O60894 24-111; Q16602 29-134) (receptor)” showed a half-life of 1.52 min and a residence time of 2.18 min. In test [2], this substance registered a Kd of 52.2 µM, a koff of 3.3 s⁻¹ and a kon of 63300 M⁻¹ s⁻¹. This substance also displayed a residence time in test [3] of 132 s.

The record behind these values is PMC12262204.
